The record followed here is US20240270819A1 (ELANCO US, published 2024).

Experiment [1] deals with canine FcRn with a poly-His tag / canine B2M heterodimer complex (canine). Nature of the experiment: SPR (Biacore T200), pH 6.0; biotinylated FcRn/B2M immobilised, Fc as analyte. (In general: Surface plasmon resonance follows binding to a sensor surface in real time, without labels.)
Experiment [2] concerns the target T1, canine IL4 (Sino Biological Inc, Cat #70021-DNAE-5) (canine, UniProt O77762 25-132).
T1 sequence (looked up): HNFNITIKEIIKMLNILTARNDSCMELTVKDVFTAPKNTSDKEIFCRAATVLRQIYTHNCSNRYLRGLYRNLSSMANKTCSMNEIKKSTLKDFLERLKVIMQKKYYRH
Nature of the experiment: cell-based or functional assay.

The koff is the rate constant with which the complex falls apart.

For “variant canine IgG-B Fc polypeptide L(23)S”, the koff in experiment [1] amounted to 0.241 s⁻¹.

B1: canine IL4RECD-IL13RECD-IgGB Fc (Fc fusion)
chain: SGSVKVLHEPSCFSDYISTSVCQWKMDHPTNCSAELRLSYQLDFMGSENHTCVPENREDSVCVCSMPIDDAVEADVYQLDLWAGQQLLWSGSFQPSKHVKPRTPGNLTVHPNISHTWLLMWTNPYPTENHLHSELTYMVNVSNDNDPEDFKVYNVTYMGPTLRLAASTLKSGASYSARVRAWAQTYNSTWSDWSPSTTWLNYYEPGGGSGTETQPPVTNLSVSVENLCTVIWTWDPPEGASPNCTLRYFSHFDNKQDKKIAPETHRSKEVPLNERICLQVGSQCSTNESDNPSILVEKCTPPPEGDPESAVTELQCVWHNLSYMKCTWLPGRNTSPDTNYTLYYWHSSLGKILQCEDIYREGQHIGCSFALTNLKDSSFEQHSVQIVVKDNAGKIRPSFNIVPLTSHVKPDPPHIKRLFFQNGNLYVQWKNPQNFYSRCLSYQVEVNNSQTETNDIFYVEEAKCQNSEFEGNLEGTICFMVPGVLPDTLNTVRIRVRTNKLCYEDDKLWSNWSQAMSIGENTDPTPKRENGRVPRPPDCPKCPAPEMLGGPSVFIFPPKPKDTLLIARTPEVTCVVVDLDPEDPEVQISWFVDGKQMQTAKTQPREEQFNGTYRVVSVLPIGHQDWLKGKQFTCKVNNKALPSPIERTISKARGQAHQPSVYVLPPSREELSKNTVSLTCLIKDFFPPDIDVEWQSNGQQEPESKYRTTPPQLDEDGSYFLYSKLSVDKSRWQRGDTFICAVMHEALHNHYTQESLSHSPGK
modifications: Biotinylated when captured on the tips in the sequential binding experiment; secreted from CHO cells, so glycosylated.
For the molecule B1, the “TF1 cell proliferation assay (CellTiter-Glo luminescence), IC50 by 4 parameter logistic fit” value in experiment [2] turned out to be 2 nM.
